Assay [1] concerns the target T1, AAV8 (adeno-associated virus 8).
T1 construct: also called adeno-associated virus serotype 8
Kind of assay: SPR, AAV amine-coupled to CM5 chip.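 Note: nanobodies flowed as analyte at seven concentrations spanning 1–100 nM over immobilized AAV (500–800 RU), kinetic constants derived by fitting the binding curves.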
Description: (§1) AAV was amine-coupled to a CM5 sensor chip at a density of 500-800 response units (RU). Nanobodies were injected at seven concentrations (1-100 nM) with a flow rate of 45 μL/min, and chip regeneration was performed using glycine-HCl (pH 1.5). Binding curves at different nanobody concentrations were used to calculate kinetic parameters (Kₐ, Kd, KD) (Table 2 and FIG. 2).

Assay [2] addresses T2, AAV9 (adeno-associated virus 9).
T2 construct: also called adeno-associated virus serotype 9
Kind of assay: SPR, AAV amine-coupled to CM5 chip. (In general: Surface plasmon resonance follows binding to a sensor surface in real time, without labels.)
Description: as §1

For assay [3], the target named is T3, AAV5 (adeno-associated virus 5).
T3 construct: also called adeno-associated virus serotype 5
Kind of assay: SPR, AAV amine-coupled to CM5 chip.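 Note: nanobodies flowed as analyte at seven concentrations spanning 1–100 nM over immobilized AAV (500–800 RU), kinetic constants derived by fitting the binding curves.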
Description: as §1

In assay [4] the target is T4, AAV5.
T4 construct: also called adeno-associated virus serotype 5
Nature of the assay: SPR, AAV on CM5 chip.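 Note: surface plasmon resonance with AAV amine-coupled to the chip as ligand, nanobodies injected as analyte over a concentration series, rate constants and affinity fitted from binding curves.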
Description: as §1

Assay [5] deals with T5, AAV8.
T5 construct: also called adeno-associated virus serotype 8
Nature of the assay: SPR, AAV on CM5 chip.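 Note: surface plasmon resonance with AAV amine-coupled to the chip as ligand, nanobodies injected as analyte over a concentration series, rate constants and affinity fitted from binding curves.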
Description: as §1

Assay [6] concerns the target T6, AAV9.
T6 construct: also called adeno-associated virus serotype 9
Nature of the assay: SPR, AAV on CM5 chip.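 Note: surface plasmon resonance with AAV amine-coupled to the chip as ligand, nanobodies injected as analyte over a concentration series, rate constants and affinity fitted from binding curves.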
Description: as §1

Broadly, the Kd is the equilibrium constant for the complex coming apart. Low values mean a tighter complex, high ones a looser complex. As a reminder, the koff is the rate constant with which the complex falls apart. A higher koff goes with fast dissociation. A word on the kon: it is a measure of how fast the partners come together. Read a low kon as slow association.

B1: A4-055 (VHH)
VHH: VQLQESGGGLVQPGGSLRLSCAASGSIFSINTMGWYRQAPGKQRELVAAVTRGGSTNYADSVKGRFTISRDNAKNTVYLQMNSLRPEDTAVYYCHVDEVRQSSWTTSNLWGQGTQVTVSS
In assay [1], B1 registered a Kd of 2.23 nM, a koff of 0.00044 s⁻¹ and a kon of 198000 M⁻¹ s⁻¹. Besides, in assay [2], the Kd is 4.06 nM, the off-rate (koff) was 0.00032 s⁻¹ and the kon came out at 78800 M⁻¹ s⁻¹. Also, in assay [3], the Kd came to 1.11 nM, the koff was found to be 0.00022 s⁻¹ and the kon came out at 198000 M⁻¹ s⁻¹.

B2: A4-060 (VHH)
VHH: VQLQESGGGLVQPGGSLRLSCAASGSTFSLNTMGWYRQAPGKQREIVATVTRGGSTNYAESVKGRFTISRDNAKNTVYLQMNSLRPEDTAVYYCHVDEVRQSTWTTSNLWGQGTQVTVSS
For the molecule B2, the Kd in assay [1] is 6.63 nM; in assay [2], 69.2 nM; in assay [3], 2.45 nM. The koff in assay [1] is 0.00055 s⁻¹; in assay [2] it was 0.00176 s⁻¹; in assay [3], 0.00045 s⁻¹. The values for the kon in assay [1], in assay [2] and in assay [3] were 82900 M⁻¹ s⁻¹, 25400 M⁻¹ s⁻¹ and 184000 M⁻¹ s⁻¹, respectively.

B3: A4-049 (VHH)
VHH: VQLQESGGGLVQPGGSLRLSCAASGSMFSINTMGWYRQAPGKQRELVAAVTRGGNTNYAGSVKGRFTISRDNAKNTVYLQMNSLRPEDTAVYYCHVDEVRQSSWTTSNLWGQGTQVTVSS
In assay [4], B3 had a Kd of 9.61 nM, a koff of 0.00158 s⁻¹ and a kon of 164000 M⁻¹ s⁻¹. Besides, in assay [5], the Kd turned out to be 20.8 nM, the koff stood at 0.00056 s⁻¹ and the kon stood at 26900 M⁻¹ s⁻¹. In addition, in assay [6], the Kd came to 93.1 nM, the koff worked out at 0.00194 s⁻¹ and the kon came out at 20800 M⁻¹ s⁻¹.

B4: A4-052 (VHH)
VHH: VQLQESGGGLVQPGGSLRLSCAASGSIFIINTMGWYRQAPGKQRELVAAVTRGGSTNYADSVKGRFTISRDNAKNTVYLQMNSLRPEDTAVYYCHVDEVRQSSWTTSNLWGQGTQVTVSS
In assay [1], B4 registered a Kd of 47.6 nM and a koff of 0.00151 s⁻¹. In assay [2], binding was put at a Kd of 7.38 nM, the koff stood at 0.00077 s⁻¹ and the kon was 104000 M⁻¹ s⁻¹. Also, in assay [3], the Kd was determined as 388 nM, the koff is 0.00056 s⁻¹ and the kon stood at 1440 M⁻¹ s⁻¹.

B5: A4-063 (VHH)
VHH: VQLQESGGGLVQPGGSLRLSCAASGRRFTINTMGWYRRAPGKQRELVATITRGGSTNYAGSVKGRFTISRDNPKNTVYLQMNSLRPEDTAVYYCHIDEVRQSSWTTSNLWGQGTQVTVSS
In assay [1], B5 yielded a Kd of 439 nM, a koff of 0.0065 s⁻¹ and a kon of 14800 M⁻¹ s⁻¹. Also, in assay [2], the Kd was 81.6 nM, the koff came out at 0.00401 s⁻¹ and the kon turned out to be 49100 M⁻¹ s⁻¹. In addition, in assay [3], binding was put at a Kd of 128 nM, the koff worked out at 0.00834 s⁻¹ and the kon amounted to 65000 M⁻¹ s⁻¹.

B6: A4-058 (VHH)
VHH: VQLQESGGGLVQPGGSLRLSCAASGSIFSINTMGWYRQAPAKQREIVATVTRDGSTNYAESVKGRFTISRDNAKNTVYLQMNSLRPEDTAVYYCHLDEVRQSTWTTSNLWGQGTQVTVSS
As for B6, in assay [1], the affinity, expressed as Kd, was 33.4 nM; the koff stood at 0.00173 s⁻¹; the kon came to 51800 M⁻¹ s⁻¹. Besides, in assay [2], binding was characterised by a dissociation constant (Kd) of 6.11 nM, the koff is 0.0012 s⁻¹ and the kon came to 196000 M⁻¹ s⁻¹. Also, in assay [3], binding was characterised by a dissociation constant (Kd) of 24.5 nM, the koff was found to be 0.00129 s⁻¹ and the kon was determined as 52600 M⁻¹ s⁻¹.

B7: A4-053 (VHH)
VHH: VQLQESGGGLVQPGGSLRLSCAASGSIFIINTMGWYRRAPGKQRELVAAVTRGGSTNYADSVKGRFTISRDNAKNTVYLQMNSLRPEDTAVYYCHVDEVRQSSWTTSNLWGQGTQVTVSS
On to B7, for which the Kd in assay [1] stood at 15.7 nM; in assay [2], 2.6 nM; in assay [3], 7.52 nM. The koff in assay [1] stood at 0.00146 s⁻¹; in assay [2] it was 0.00048 s⁻¹; in assay [3], 0.00121 s⁻¹. In addition, the kon in assay [1] turned out to be 93200 M⁻¹ s⁻¹; in assay [2] it was 185000 M⁻¹ s⁻¹; in assay [3] it was 161000 M⁻¹ s⁻¹.

B8: A4-062 (VHH)
VHH: VQLQESGGGLVQAGGSLRLSCAASGSSFSINAMGWYRQAPGKQRELVATVTRGGTTNYADSVKGRFTISRDNPKNTVYLQMNSLRPEDTAVYYCHLDEVRESSWTTSNLWGQGTQVTVSS
Take B8: in assay [1], the Kd came to 1.39 nM, the off-rate constant (koff) is 0.00019 s⁻¹ and the kon stood at 137000 M⁻¹ s⁻¹. In assay [2], this molecule had a Kd of 1.83 nM, a koff of 6e-05 s⁻¹ and a kon of 32800 M⁻¹ s⁻¹. In assay [3], this molecule gave a Kd of 0.0635 nM, a koff of 1e-05 s⁻¹ and a kon of 157000 M⁻¹ s⁻¹.

B9: A4-050 (VHH)
VHH: VQLQESGGGLVQPGGSLRLSCAASGSSFVINTMGWYRQAPGKQRELVAAVTRGGSTNYADSVKGRFTISRDNAKNTVYLQMNSLRPEDTAVYYCHVDEVRQSSWTTSNLWGQGTQVTVSS
In assay [4], B9 yielded a Kd of 7 nM, a koff of 7e-05 s⁻¹ and a kon of 10000 M⁻¹ s⁻¹. In assay [5], binding was put at a Kd of 2.44 nM, the koff turned out to be 0.00043 s⁻¹ and the kon came to 176000 M⁻¹ s⁻¹. In assay [6], this molecule registered a Kd of 2.52 nM, a koff of 0.00049 s⁻¹ and a kon of 194000 M⁻¹ s⁻¹.

B10: A4-059 (VHH)
VHH: VQLQESGGGAVQPGGSLRLSCAASGSHFSLNTMGWYRRAPGKQRELVATVTRGGSTNYADSVKGRFTISRDNAKNTIYLQMNSLRPEDTAVYYCHVDEVRQSTWTTSNLWGQGTQVTVSS
Take B10: in assay [1], the Kd came out at 29 nM, the koff was 0.00094 s⁻¹ and the kon turned out to be 32500 M⁻¹ s⁻¹. In assay [2], this molecule showed a Kd of 0.514 nM, a koff of 6e-05 s⁻¹ and a kon of 117000 M⁻¹ s⁻¹. In addition, in assay [3], the Kd was determined as 16.6 nM, the koff was 0.00091 s⁻¹ and the kon is 54900 M⁻¹ s⁻¹.

B11: A4-061 (VHH)
VHH: VQLQESGGGLVQPGGSLRLSCAASGSRFSLNTMGWYRQAPGKQRELVATVTRGGSTNYANSVKGRFTISRDNAKNTVYLQMNSLRPEDTAVYYCHVDEVRQSTWTTSNLWGQGTQVTVSS
Take B11: in assay [1], binding was characterised by a dissociation constant (Kd) of 530 nM and the koff stood at 0.00057 s⁻¹. In assay [2], this molecule came in with a Kd of 273 nM, a koff of 0.0013 s⁻¹ and a kon of 4770 M⁻¹ s⁻¹. Also, in assay [3], binding was put at a Kd of 86.8 nM, the dissociation rate constant (koff) amounted to 0.00055 s⁻¹ and the kon worked out at 6330 M⁻¹ s⁻¹.

B12: A4-057 (VHH)
VHH: VQLQESGGGLVQPGGSLRLSCAASGSIFSINTMGWYRQAPGKQREKVAAVTRGGSTNYADSVKGRFTISRDNAKNTVYLQMNSLRPEDTAVYYCHVDEVRQSSWTTSNLWGQGTQVTVSS
As to B12, in assay [1], the Kd was determined as 103 nM, the koff was 0.00031 s⁻¹ and the kon came out at 3020 M⁻¹ s⁻¹. In assay [2], this molecule registered a Kd of 53.3 nM, a koff of 0.00049 s⁻¹ and a kon of 9190 M⁻¹ s⁻¹. For the same molecule, in assay [3], the Kd came out at 64.4 nM, the koff came to 0.00027 s⁻¹ and the kon amounted to 4200 M⁻¹ s⁻¹.

The record behind these values is US20260193326A1 (published 2026).
